Changes are numbered by the printed parent chain.

By Kd is commonly meant the equilibrium constant for the complex coming apart. The low end stands for higher affinity, the high end for lower affinity. The term koff denotes a measure of how fast the partners let go of each other. Broadly, the kon is the second-order rate constant of association. High values mean fast association, low ones slow association.

Assay [1] deals with T1, HuCD3E (Homo sapiens, UniProt P07766 23-126, limits assumed).
T1 construct: Recombinant analyte in SPR and antigen in ELISA; also called human CD3; human CD3 epsilon
T1 sequence (P07766 23-126 limits assumed): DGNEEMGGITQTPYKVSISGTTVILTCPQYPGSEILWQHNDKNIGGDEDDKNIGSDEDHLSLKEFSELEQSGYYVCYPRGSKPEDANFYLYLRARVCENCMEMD
In words: SPR, Biacore 8K; CD3 Affinity column: Low. (In SPR one partner is held on a chip, and binding of the other changes the refractive index at the surface.)

The target in assay [2] is T2, CynoCD3E (cyno, UniProt Q95LI5 22-117, limits assumed).
T2 construct: Recombinant analyte in SPR and antigen in ELISA; The construct is not described; also called cynomolgus CD3 epsilon
T2 sequence (looked up): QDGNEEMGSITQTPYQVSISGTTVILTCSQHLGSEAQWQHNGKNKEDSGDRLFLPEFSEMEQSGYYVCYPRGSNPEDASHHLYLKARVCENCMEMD
The assay can be described thus: SPR, Biacore 8K; antibody captured, CD3E as analyte; sample after 24 h at 42° C. As for the experimental part: (§1) Initially, the affinity measurement of the anti-CD3 clones were determined using a Surface Plasmon Resonance (SPR) biosensor, Biacore 8K (GE Healthcare). The equilibrium dissociation constant (KD) was calculated from the ratio of kd over ka. To determine the contribution of a specific residue to antibody affinity and expression, paratope mapping was performed by screening of NNK libraries. In brief, the VH and VL of the parental antibody were searched by using NCBI Ig-Blast (www.ncbi.nlm.nih.gov/projects/igblast/) and CDRs were defined by the KABAT delineation system. All residues within CDRs were defined and mutated by NNK method. Each individual NNK library was generated per residue based on the FASEBA platform with a theoretical diversity at 20. The DNA encoding both heavy chain and light chain were inserted into a mammalian expression vector, transfected into CHO-S cells, and stable clones of highest expression were selected. Supernatants were collected from shaker flasks and purified on protein A affinity chromatography.
(§2) Thermal stability. […] After incubation, the supernatant was centrifuged at 4500 rpm, and undissolved substances was discarded. Heat-treated, purified full-length bispecific antibodies were re-evaluated for their concentrations, and affinity ranking of samples with thermal treatment to human and cyno CD3 was conducted.
(§3) Affinity ranking. Binding between the parental and affinity-tuned bispecific antibodies and human and cyno target proteins (HER2 and CD3) was validated by ELISA, and a Biacore 8K was used to study the kinetics of the interaction between the antigen and the bispecific antibodies.

Assay [3] deals with T1, HuCD3E. Described as above. Here is the method: as §1, §2, §3
Assay [4] concerns the target T2, CynoCD3E. The assay can be described thus: SPR, Biacore 8K; antibody captured, CD3E as analyte. Here is the method:
as §1, §3

Assay [5] has as its target T1, HuCD3E. The assay is described as above. Here is the method:
as §1, §3

Assay [6] deals with T1, HuCD3E. The assay can be described thus: SPR, Biacore 8K; CD3 Affinity column: Low. As for the experimental part: as §1, §3
This is another data set of the same source.

The target of assay [7] is T1, HuCD3E. The assay can be described thus: SPR, Biacore 8K; CD3 Affinity column: Med; lower end of the range.
The target in assay [8] is T1, HuCD3E. The assay can be described thus: SPR, Biacore 8K; CD3 Affinity column: Med; upper end of the range.
Assay [9] has as its target T1, HuCD3E. The assay can be described thus: SPR, Biacore 8K; CD3 Affinity column: Low. This is another data set of the same source.
Assay [10] deals with T1, HuCD3E. The assay can be described thus: SPR, Biacore 8K; CD3 Affinity column: Hi.
Assay [11] has as its target T1, HuCD3E. In words: SPR, Biacore 8K; CD3 Affinity column: Low. This is another data set of the same source.
Assay [12] concerns the target T1, HuCD3E. The assay can be described thus: SPR, Biacore 8K; CD3 Affinity column: Med; upper end of the range. The source holds these as a separate data set.
The target of assay [13] is T1, HuCD3E. In words: SPR, Biacore 8K; CD3 Affinity column: Med; lower end of the range. The source holds these as a separate data set.
Assay [14] deals with T1, HuCD3E. The assay can be described thus: SPR, Biacore 8K; CD3 Affinity column: Low. The source holds these as a separate data set.

B1: 32G4-V8-v5.5 (antibody, V domains shown)
VH: EVQLVESGGGLVQPGGSLKLSCAASGFTFNTYAMNWVRQAPGKGLEWVARIRSKYNNYATYYADSVKDRFTISRDDSKNTAYLQMNSLKTEDTAVYYCVRHGNFGNSYVSWFMYWGQGTLVTVSS
VL: QTVVTQEPSLTVSPGGTVTLTCRSSTGAVTTSNYANWVQQKPGQAFRGLIGGTNKRAPGVPARFSGSLLGGKAALTLSGVQPEDEAIYFCALWYSNLWVFGGGTKLTVL
Regarding B1, in the assay with HuCD3E [1], the Kd was > 100 nM.

B2: VH3 (SEQ ID NO: 18) + VL6 (SEQ ID NO: 19) (antibody, V domains shown)
VH: B1 VH with M113A
VL: B1 VL with T107E, V108I, L109K
notes: Humanized SP34 anti-CD3 variant; The sample heated at 42° C. is the same molecule and is marked under assay; also called VH3 + VL6
On to B2, for which the Kd in the assay with CynoCD3E [2] was determined as 1.36 nM; with HuCD3E [3], 1.38 nM; with CynoCD3E [4] it was 1.71 nM; with HuCD3E [5], 1.25 nM. The koff was found to be 0.000489 s⁻¹ with CynoCD3E [2], 0.000343 s⁻¹ in the assay with HuCD3E [3], 0.000469 s⁻¹ in the assay with CynoCD3E [4] and 0.000286 s⁻¹ in the assay with HuCD3E [5]. In addition, the kon stood at 359000 M⁻¹ s⁻¹ with CynoCD3E [2], 249000 M⁻¹ s⁻¹ in the assay with HuCD3E [3], 274000 M⁻¹ s⁻¹ with CynoCD3E [4] and 229000 M⁻¹ s⁻¹ with HuCD3E [5].

B3: ABP100s.10.5.6 (antibody, V domains shown)
VH: B1 VH with G44C, M113A
VL: B1 VL with A91M, G102C
In the case of B3, the Kd in the assay with HuCD3E [6] was > 100 nM.

B4: 47D10-V7-v5.2 (antibody, V domains shown)
VH: B1 VH with Y62K, M113A
VL: B1 VL
As to B4, the dissociation constant Kd in the assay with HuCD3E [7] is ≥ 10 nM; in the assay with HuCD3E [8] it was ≤ 100 nM.

B5: ABP100s.10.0.6 (antibody, V domains shown)
VH: B1 VH with G44C, M113A
VL: B1 VL with A91M, G102C
Consider B5, for which the Kd with HuCD3E [9] was > 100 nM.

B6: ABP100s.10.6 (antibody, V domains shown)
VH: B1 VH with G44C, M113A
VL: B1 VL with G102C
With B6, the Kd in the assay with HuCD3E [10] is < 10 nM.

B7: 47D10-V7-v5.5 (antibody, V domains shown)
VH: B1 VH
VL: B1 VL
On to B7, for which the Kd with HuCD3E [11] was > 100 nM.

B8: ABP100s.10.5 (antibody, V domains shown)
VH: B1 VH with G44C, M113A
VL: B1 VL with G102C
For B8, in the assay with HuCD3E [10], the Kd is < 10 nM.

B9: 47D10-V7-v5.6 (antibody, V domains shown)
VH: B1 VH with M113A
VL: B1 VL with A91M
B9: the Kd with HuCD3E [11] is > 100 nM.

B10: ABP100s.10.0.4 (antibody, V domains shown)
VH: B1 VH with G44C, A63W, M113A
VL: B1 VL with G102C
For the molecule B10, the figures for the Kd with HuCD3E [12] and with HuCD3E [13] were ≤ 100 nM and ≥ 10 nM, respectively.

B11: ABP100s.10.0.3 (antibody, V domains shown)
VH: B1 VH with G44C, S65K, M113A
VL: B1 VL with G102C
Regarding B11, the figures for the Kd with HuCD3E [12] and in the assay with HuCD3E [13] were ≤ 100 nM and ≥ 10 nM, respectively.

B12: ABP100s.5.3 (antibody, V domains shown)
VH: B1 VH with M113A
VL: B1 VL with W93Y, T107E, V108I, L109K
Consider B12, for which the Kd with HuCD3E [14] is > 100 nM.

B13: VH3 (SEQ ID NO: 18) + VL4 (SEQ ID NO: 20) (antibody, V domains shown)
VH: B1 VH with M113A
VL: B1 VL with I87E, T107E, V108I, L109K
notes: Humanized SP34 anti-CD3 variant; The sample heated at 42° C. is the same molecule and is marked under assay; also called VH3 + VL4
Turning to B13, the Kd is 1.9 nM with CynoCD3E [2], 1.5 nM in the assay with HuCD3E [3], 2.14 nM with CynoCD3E [4] and 1.72 nM in the assay with HuCD3E [5]. The koff in the assay with CynoCD3E [2] came to 0.00049 s⁻¹; in the assay with HuCD3E [3], 0.000349 s⁻¹; with CynoCD3E [4] it was 0.000501 s⁻¹; with HuCD3E [5], 0.000331 s⁻¹. The kon with CynoCD3E [2] worked out at 257000 M⁻¹ s⁻¹; with HuCD3E [3] it was 232000 M⁻¹ s⁻¹; with CynoCD3E [4], 234000 M⁻¹ s⁻¹; with HuCD3E [5] it was 192000 M⁻¹ s⁻¹.

B14: 47D10-V7-v5.3 (antibody, V domains shown)
VH: B1 VH with S65K, M113A
VL: B1 VL
For the molecule B14, the Kd with HuCD3E [7] is ≥ 10 nM; with HuCD3E [8] it was ≤ 100 nM.

B15: ABP100s.10.0.1 (antibody, V domains shown)
VH: B1 VH with G44C, M113G
VL: B1 VL with G102C
Take B15: the Kd with HuCD3E [10] is < 10 nM.

B16: ABP100s.10.0.5 (antibody, V domains shown)
VH: B1 VH with G44C
VL: B1 VL with G102C
Consider B16, for which the Kd with HuCD3E [9] was > 100 nM.

B17: 32G4-V8-v5.6 (antibody, V domains shown)
VH: B1 VH with M113A
VL: B1 VL with A91M
For the molecule B17, the Kd in the assay with HuCD3E [1] was > 100 nM.

B18: ABP100s.10.6.5 (antibody, V domains shown)
VH: B1 VH with G44C
VL: B1 VL with G102C
For the molecule B18, in the assay with HuCD3E [6], the Kd is ≥ 100 nM.

B19: ABP100s.10.0.2 (antibody, V domains shown)
VH: B1 VH with G44C, Y62K, M113A
VL: B1 VL with G102C
Consider B19, for which the Kd in the assay with HuCD3E [12] is ≤ 100 nM; in the assay with HuCD3E [13] it was ≥ 10 nM.

B20: ABP100s.10.4 (antibody, V domains shown)
VH: B1 VH with G44C, M113A
VL: B1 VL with G102C
Take B20: the Kd with HuCD3E [10] is < 10 nM.

B21: ABP100s.10.5.5 (antibody, V domains shown)
VH: B1 VH with G44C
VL: B1 VL with G102C
For the molecule B21, the Kd with HuCD3E [6] was > 100 nM.

B22: ABP100s.10.6.6 (antibody, V domains shown)
VH: B1 VH with G44C, M113A
VL: B1 VL with A91M, G102C
For the molecule B22, the Kd in the assay with HuCD3E [1] is ≥ 100 nM.

B23: 47D10-V7-v5.4 (antibody, V domains shown)
VH: B1 VH with A63W, M113A
VL: B1 VL
For the molecule B23, the figures for the Kd with HuCD3E [7] and in the assay with HuCD3E [8] were ≥ 10 nM and ≤ 100 nM, respectively.

For the origin of these results see patent US20250340637A1 (ABPRO, published 2025).
